The target in assay [1] is human voltage-gated sodium channel Nav1.4 (human) (UniProt P35499). In words: cell-based or functional assay.
In assay [2] the target is human voltage-gated sodium channel Nav1.5 (human) (UniProt Q14524). In words: cell-based or functional assay.
Assay [3] has as its target human voltage-gated sodium channel Nav1.7 (human) (UniProt Q15858). In words: cell-based or functional assay.
Assay [4] has as its target human voltage-gated sodium channel Nav1.3 (human) (UniProt Q9NY46). Kind of assay: cell-based or functional assay.
Assay [5] deals with TTX-sensitive Nav channels in mouse DRG neuron. In words: cell-based or functional assay.
The target in assay [6] is human voltage-gated sodium channel Nav1.3 (human) (UniProt Q9NY46). In words: cell-based or functional assay. The source holds these as a separate data set.
The target of assay [7] is human voltage-gated sodium channel Nav1.4 (human) (UniProt P35499). In words: cell-based or functional assay. The source holds these as a separate data set.
For assay [8], the target named is human voltage-gated sodium channel Nav1.5 (human) (UniProt Q14524). Kind of assay: cell-based or functional assay. This is another data set of the same source.
Assay [9] has as its target human voltage-gated sodium channel Nav1.7 (human) (UniProt Q15858). Kind of assay: cell-based or functional assay. The source holds these as a separate data set.
The target in assay [10] is TTX-resistant Nav channels in mouse DRG neurons. In words: cell-based or functional assay.
The target in assay [11] is TTX-sensitive Nav channels in mouse DRG neurons. In words: cell-based or functional assay.
In assay [12] the target is human voltage-gated sodium channel Nav1.8 (human) (UniProt Q9Y5Y9). In words: cell-based or functional assay.
In assay [13] the target is human voltage-gated sodium channel Nav1.8 (human), Q9Y5Y9. Conditions: chains peptide; modification not given.

“And” between values parts separate entries of the source, which are not always exact repeats. Identical values can stand only once. Like-named read-outs stand apart in the source and are kept apart here.

The values below come from US20150023988A1.

human voltage-gated sodium channel Nav1.8 (human), sequence (Q9Y5Y9 whole entry): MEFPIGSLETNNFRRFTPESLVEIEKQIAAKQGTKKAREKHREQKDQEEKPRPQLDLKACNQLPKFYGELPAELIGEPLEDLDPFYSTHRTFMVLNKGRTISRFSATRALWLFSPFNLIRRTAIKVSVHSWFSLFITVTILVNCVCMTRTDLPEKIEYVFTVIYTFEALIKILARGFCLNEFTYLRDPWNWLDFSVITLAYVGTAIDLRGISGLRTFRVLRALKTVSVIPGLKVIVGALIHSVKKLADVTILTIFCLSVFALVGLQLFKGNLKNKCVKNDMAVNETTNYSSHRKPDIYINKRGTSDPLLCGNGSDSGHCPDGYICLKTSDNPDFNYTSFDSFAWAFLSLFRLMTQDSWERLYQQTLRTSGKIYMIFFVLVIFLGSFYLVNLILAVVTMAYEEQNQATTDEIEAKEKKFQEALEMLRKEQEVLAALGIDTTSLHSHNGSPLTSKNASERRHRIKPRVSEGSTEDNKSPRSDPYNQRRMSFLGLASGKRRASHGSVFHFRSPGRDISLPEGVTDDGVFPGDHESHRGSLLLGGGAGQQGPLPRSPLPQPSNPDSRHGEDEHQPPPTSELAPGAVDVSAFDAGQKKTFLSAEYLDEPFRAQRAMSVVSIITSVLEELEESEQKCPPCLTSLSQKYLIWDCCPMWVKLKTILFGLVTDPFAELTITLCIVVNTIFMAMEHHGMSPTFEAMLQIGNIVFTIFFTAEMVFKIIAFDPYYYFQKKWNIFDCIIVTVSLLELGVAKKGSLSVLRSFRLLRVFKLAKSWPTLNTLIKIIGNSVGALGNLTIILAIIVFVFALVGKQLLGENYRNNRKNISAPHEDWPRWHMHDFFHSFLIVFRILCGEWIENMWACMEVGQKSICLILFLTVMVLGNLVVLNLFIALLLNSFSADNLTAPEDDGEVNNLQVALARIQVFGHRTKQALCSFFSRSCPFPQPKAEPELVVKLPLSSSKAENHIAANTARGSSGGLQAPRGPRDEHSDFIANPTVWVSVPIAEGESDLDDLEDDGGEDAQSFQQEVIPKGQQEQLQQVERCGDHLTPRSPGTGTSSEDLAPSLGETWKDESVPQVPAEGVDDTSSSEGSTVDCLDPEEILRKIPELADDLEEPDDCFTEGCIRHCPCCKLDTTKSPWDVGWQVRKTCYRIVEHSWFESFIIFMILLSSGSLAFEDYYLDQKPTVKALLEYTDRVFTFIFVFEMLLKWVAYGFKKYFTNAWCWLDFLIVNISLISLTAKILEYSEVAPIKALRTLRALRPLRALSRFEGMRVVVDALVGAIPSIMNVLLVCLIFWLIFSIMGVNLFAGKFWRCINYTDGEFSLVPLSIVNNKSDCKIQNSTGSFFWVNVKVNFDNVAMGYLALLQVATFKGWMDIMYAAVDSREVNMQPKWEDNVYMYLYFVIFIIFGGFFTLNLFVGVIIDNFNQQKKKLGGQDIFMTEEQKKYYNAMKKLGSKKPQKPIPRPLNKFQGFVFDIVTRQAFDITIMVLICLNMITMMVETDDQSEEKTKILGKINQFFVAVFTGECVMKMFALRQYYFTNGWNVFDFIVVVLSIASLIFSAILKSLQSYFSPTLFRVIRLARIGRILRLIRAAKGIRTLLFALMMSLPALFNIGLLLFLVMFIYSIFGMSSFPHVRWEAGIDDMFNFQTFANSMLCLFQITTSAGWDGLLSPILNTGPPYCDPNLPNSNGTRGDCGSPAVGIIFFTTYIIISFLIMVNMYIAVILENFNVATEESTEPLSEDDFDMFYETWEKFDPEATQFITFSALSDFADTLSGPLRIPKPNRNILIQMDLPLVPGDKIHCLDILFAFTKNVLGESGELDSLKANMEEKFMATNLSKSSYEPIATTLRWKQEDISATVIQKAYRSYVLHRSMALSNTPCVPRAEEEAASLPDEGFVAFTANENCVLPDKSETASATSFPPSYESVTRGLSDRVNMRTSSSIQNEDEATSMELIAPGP
human voltage-gated sodium channel Nav1.7 (human), sequence (Q15858 whole entry): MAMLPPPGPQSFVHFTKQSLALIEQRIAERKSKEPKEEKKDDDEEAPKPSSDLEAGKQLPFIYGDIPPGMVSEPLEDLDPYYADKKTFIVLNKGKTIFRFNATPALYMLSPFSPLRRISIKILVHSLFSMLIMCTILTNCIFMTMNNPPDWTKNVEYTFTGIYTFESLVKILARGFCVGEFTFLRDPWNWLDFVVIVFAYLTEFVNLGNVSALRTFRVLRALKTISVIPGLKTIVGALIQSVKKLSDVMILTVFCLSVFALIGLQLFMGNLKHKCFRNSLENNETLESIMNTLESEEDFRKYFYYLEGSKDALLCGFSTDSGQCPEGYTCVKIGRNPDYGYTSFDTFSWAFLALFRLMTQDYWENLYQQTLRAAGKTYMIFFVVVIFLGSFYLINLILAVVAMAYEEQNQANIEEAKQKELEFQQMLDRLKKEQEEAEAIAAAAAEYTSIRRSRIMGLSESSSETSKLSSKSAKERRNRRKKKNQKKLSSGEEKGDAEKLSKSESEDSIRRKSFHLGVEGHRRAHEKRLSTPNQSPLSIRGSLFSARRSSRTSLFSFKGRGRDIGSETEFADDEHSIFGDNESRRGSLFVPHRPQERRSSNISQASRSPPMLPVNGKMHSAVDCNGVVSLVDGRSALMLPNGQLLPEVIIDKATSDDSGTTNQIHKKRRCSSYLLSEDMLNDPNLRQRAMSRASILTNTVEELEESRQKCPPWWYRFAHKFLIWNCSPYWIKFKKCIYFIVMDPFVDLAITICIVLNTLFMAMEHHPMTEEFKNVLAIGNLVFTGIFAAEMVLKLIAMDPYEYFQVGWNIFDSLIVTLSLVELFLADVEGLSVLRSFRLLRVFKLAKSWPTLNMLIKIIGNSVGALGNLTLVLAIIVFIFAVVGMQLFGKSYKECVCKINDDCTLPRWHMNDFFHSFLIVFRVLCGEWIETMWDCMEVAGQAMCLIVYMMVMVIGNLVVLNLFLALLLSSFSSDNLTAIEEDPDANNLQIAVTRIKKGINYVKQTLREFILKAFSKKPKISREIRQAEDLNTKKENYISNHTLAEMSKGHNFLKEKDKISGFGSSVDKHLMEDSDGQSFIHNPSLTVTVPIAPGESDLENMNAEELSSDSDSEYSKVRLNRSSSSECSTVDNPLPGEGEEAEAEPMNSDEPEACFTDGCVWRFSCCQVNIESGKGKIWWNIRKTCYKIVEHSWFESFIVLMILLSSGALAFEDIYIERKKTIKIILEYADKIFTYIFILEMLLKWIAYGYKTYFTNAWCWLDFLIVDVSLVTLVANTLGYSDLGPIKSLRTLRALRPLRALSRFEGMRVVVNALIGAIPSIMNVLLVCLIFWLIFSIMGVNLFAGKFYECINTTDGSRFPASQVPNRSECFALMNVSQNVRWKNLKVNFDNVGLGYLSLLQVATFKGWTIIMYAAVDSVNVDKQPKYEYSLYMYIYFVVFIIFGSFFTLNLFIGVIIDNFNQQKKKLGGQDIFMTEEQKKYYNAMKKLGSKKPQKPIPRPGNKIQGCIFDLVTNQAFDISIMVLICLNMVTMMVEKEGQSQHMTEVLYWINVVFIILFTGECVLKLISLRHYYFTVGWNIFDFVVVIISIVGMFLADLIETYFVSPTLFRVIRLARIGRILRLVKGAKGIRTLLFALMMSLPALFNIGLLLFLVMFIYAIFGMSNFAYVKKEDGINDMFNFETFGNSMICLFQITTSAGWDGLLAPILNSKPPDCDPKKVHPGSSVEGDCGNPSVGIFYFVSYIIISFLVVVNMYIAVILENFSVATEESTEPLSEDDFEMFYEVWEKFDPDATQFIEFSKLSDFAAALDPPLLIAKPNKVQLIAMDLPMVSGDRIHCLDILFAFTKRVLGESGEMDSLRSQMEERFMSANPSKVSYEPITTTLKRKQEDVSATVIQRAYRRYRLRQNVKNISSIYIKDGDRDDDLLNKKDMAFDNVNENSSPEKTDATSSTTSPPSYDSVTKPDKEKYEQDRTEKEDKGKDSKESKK

In assay [1], “Atz(PEG11-benzylthioacetamide)-[Nle6]JzTx-V(1-29) (peptide)” had a Nav1.4/Nav1.7 of 9 fold and a PX hNav1.4 Tonic IC50 of 0.013 µM. In [2], this molecule displayed a Nav1.5/Nav1.7 of 1420 fold and a PX hNav1.5 Tonic IC50 of 1.98 µM. In addition, in assay [3], the PX hNav1.7 Tonic IC50 stood at 0.0014 µM.
For [Cpa20]JzTx-V(1-29) (peptide), the IC50 (IonWorks Quattro) in assay [4] was above 5 µM; in assay [1] it was above 5 µM; in [2], 14.2 µM; in assay [3], 0.21 µM. Further, the Nav1.4/Nav1.7 (ratio of IC50s) in [1] came to 24.
Consider “CyA-[Nle6,Lys(Pra)14,Glu28]JzTx-V(1-29) (peptide)”, for which the fold loss of potency against JzTx-V on TTX-sensitive current, mouse DRG neurons in assay [5] turned out to be 3 fold.
On to [Cit20]JzTx-V(1-29) (peptide), for which the IC50 (IonWorks Quattro) in assay [4] is 0.35 µM; in assay [1], 0.5 µM; in assay [2] it was 6.8 µM; in [3] it was 0.04 µM. Moreover, the Nav1.4/Nav1.7 (ratio of IC50s) in [1] worked out at 15.
For the molecule [Abu20]JzTx-V(1-29) (peptide), the IC50 (IonWorks Quattro) in assay [4] came to 0.97 µM; in [1], 0.9 µM; in [2], 10.6 µM; in assay [3], 0.05 µM. Further, in [1], the Nav1.4/Nav1.7 (ratio of IC50s) was 19.
As for “Atz(NPEG10)-[Nle6]JzTx-V(1-29) (peptide)”, in assay [1], the Nav1.4/Nav1.7 was determined as 1 fold and the PX hNav1.4 Tonic IC50 worked out at 0.008 µM. In assay [2], the Nav1.5/Nav1.7 was 629 fold and the PX hNav1.5 Tonic IC50 worked out at 3.77 µM. In [3], this molecule registered a PX hNav1.7 Tonic IC50 of 0.006 µM.
On to “Bis-{Atz(PEG23*)-[Nle6]JzTx-V(1-29)}-5-((2-(benzylthio)acetamido)methyl)isophthalamide (peptide)”, for which the Nav1.4/Nav1.7 in assay [1] was 5 fold and 3 fold. In addition, the PX hNav1.5 Tonic IC50 in assay [2] was 0.72 µM and 1.18 µM.
In [3], GpTx-1 (peptide) came in with a Nav1.7 whole cell patch clamp [WCPC] IC50 of 0.003 µM.
For the molecule [Nle6]JzTx-V(1-29) (peptide), the PX hNav1.7 Tonic IC50 in [3] was determined as 0.000586 µM. Moreover, the IC50 (IonWorks Quattro) in assay [6], in assay [7], in assay [8] and in assay [9] was above 5 µM in each case.
“[Phe6,Atz(2 kDa EtO-PEG*-{[Phe6,Atz13*]GpTx-1(1-34)})13]GpTx-1(1-34) (peptide)”: the Nav1.7 WCPC IC50 in [3] was 0.00058 µM.
For the molecule [Nva20]JzTx-V(1-29) (peptide), the IC50 (IonWorks Quattro) in [4] was above 5 µM; in assay [1], 3.1 µM; in assay [2], 10.4 µM; in [3], 0.17 µM. Besides, the Nav1.4/Nav1.7 (ratio of IC50s) in assay [1] amounted to 19.
Molecule Pra-[Nle6]JzTx-V(1-29) (peptide) returned a fold potency over JzTx-V on TTX-sensitive current, mouse DRG neurons in assay [5] of 3 fold. Moreover, in assay [3], the fold improvement in hNav1.7 potency over wild type JzTx-V, WCPC stood at 190 fold and the fold potency against hNav1.7 over wild type JzTx-V(1-29), WCPC came to 200 fold.
For JzTx-V(1-29) (peptide), the Mean IC50, fully non-inactivated (WCPC) in assay [10] was above 1 µM; in assay [11], 0.075 µM; in assay [2], 0.882 µM; in assay [3] it was 0.000141 µM; in assay [12] it was 0.81 µM. In addition, the Mean IC50, partially inactivated (WCPC) is above 1 µM in assay [10]; 0.018 µM in assay [11]; 0.426 µM in [2]; 0.000161 µM in assay [3]; 0.53 µM in assay [12]. Also, the 1.x/1.7, fully non-inactivated in [11] came to 530 fold; in assay [2] it was 6230 fold; in assay [12] it was 5720 fold. For the same molecule, the 1.x/1.7, partially inactivated in assay [11] amounted to 111 fold; in assay [2] it was 2640 fold; in assay [12], 3280 fold. The PX hNav1.4 Tonic IC50 in [1] was 0.003 µM and 0.002 µM. In addition, in assay [1], the average IC50 against hNav1.4, PX assay format turned out to be 0.002 µM. Further, the IC50 (IonWorks Quattro) in assay [2] is 7.2 µM; in [3], 0.02 µM; in [7] it was 0.2 µM; in [8], above 7 µM; in assay [9] it was 0.04 µM. In [2], the PX hNav1.5 Tonic IC50 is 2.21 µM and 3.25 µM and 1.6 µM.
In turn, [1-Nal7]JzTx-V(1-29) (peptide) yielded a PX hNav1.4 Tonic IC50 in [1] of 0.0009 µM. In [2], this molecule returned a PX hNav1.5 Tonic IC50 of 1.42 µM. The PX hNav1.7 Tonic IC50 in [3] came to 0.0004 µM.
In the case of JzTx-45 (peptide), in assay [1], the PX hNav1.4 Tonic IC50 was determined as 0.321 µM. Besides, in assay [2], the PX hNav1.5 Tonic IC50 is 7.46 µM. In addition, the PX hNav1.7 Tonic IC50 in assay [3] worked out at 0.122 µM.
For orientation: IC50 means the concentration needed to halve the response being measured. Higher therefore signals weaker potency. YCQKWMWTCDSKRACCEGLRCKLWCRKII [JzTx-V(1-29)]: in [13], the IC50 was 0.63 µM and 0.43 µM.
